# The DeepSol protein solubility set
# Assay: soluble on expression in E. coli; label from the status in PepcDB or PDB records
row,Sequence,soluble on expression in E. coli
1,MDRLIRSLLMNQNKQATDKLDHPDTSETVNISSLALLKMLRHARSGIPLEVMGLMLGDFVDDYTINVTDVFAMPQSGTSVTVESVDPVYQTKHMDLLKLVGRTENVVGWYHSHPGFGCWLSSVDVNTQQSFEALHPRAVAVVVDPIQSVKGKVMLDAFRSVNPLNLQIRPLAPTAEPRQTTSNLGHLTKPSLISVVHGLGTKYYSLNVAYRMGSNEQKMLMCLNKKSWYDQLNMSTYSELEKKQEEKFKSINKLIAVFNKDIDEVKEKPIADKKGKTQEEVKKFGKINAKQQLQMITSSLLNDSLCHQLTAMINAKSMT,not soluble
2,MDRNSLSNSLKTCYKYLNQTSRSFAAVIQALDGEMRNAVCIFYLVLRALDTLEDDMTISVEKKVPLLHNFHSFLYQPDWRFMESKEKDRQVLEDFPTISLEFRNLAEKYQTVIADICRRMGIGMAEFLDKHVTSEQEWDKYCHYVAGLVGIGLSRLFSASEFEDPLVGEDTERANSMGLFLQKTNIIRDYLEDQQGGREFWPQEVWSRYVKKLGDFAKPENIDLAVQCLNELITNALHHIPDVITYLSRLRNQSVFNFCAIPQVMAIATLAACYNNQQVFKGAVKIRKGQAVTLMMDATNMPAVKAIIYQYMEEIYHRIPDSDPSSSKTRQIISTIRTQN,soluble
3,MDRVRNLLEQIQGRLDELNKAERKVAEVILLNPQMATRLSIAALAQAAKVSEPTVNRFCRSFSVSGYPELKLQLAQSLASGAAYVSRAVEADDNPEAYTQKIFGSAIASLDSACQQLDPALVSKSVDMLIQARQIHFFGLGASAPVALDAQHKFFRFNLAVTAHADVLMQRMIASVAHTGELFVIISYTGRTRELVEVARIARANGASVLGLTAAGSPLAQASTVSLNIPLPEDTDIYMPMTSRIIQLTVLDVLATGMTLRRGVDFQPHLRKIKESLNDSRYPIEDQG,not soluble
4,MDSENSSSHSISSPQMFQNTHNNSAMEDNLLSRPMNNESLQMIIGYLRRNGLTETEELLTREAGPVLRVEGSNGLPPEEAISVEFDTFVQHANDCTDVVQAEFSQLLFPIFAHSYIALIEKHAATARIFFNRFKIFIPECFSEFVYQLSLIEDAMTLRANEHVHILRENKFLVRLSRPTLKHLESIQTRVIGVKNIIAKHICIENADEVSTNRTTIETQMGGILGVTSKSDKRHKMMFSVLKDELMQNIEKRKTKGKDWKDMGKKMQTHCPQADRIPLPPISEHLREERRNWLRDVGKMAIISAESPVSICMYTTVNAPIGVASCDFTDDSSLIAMGLSDSSIVMNAMDPMNKMKKLRDMEFLDKIDIETADNVQSQMFDLQGSTTSVRYTGHGGPVFSVNFSPDRRLLISSAGDRTVRLWSMETQRNAVIYRTPAVAQFCSRGYYFATASADKTAAMWSTDRMHPLRIFADPYGDVGCIDYHPNCNYIAGGSDDRYVRVWDVCSGTRVRIFSGHKASIIAVKFSPCGRYIVSLDAIGNLMIWDLAYQRLVAAEITEQAGTKGSITFSRDGGVFAVSHGNSSIQLYSLDTLIGTVLAAGQNDSYIEPKVNLDGFNIGSYATKETAVIGLHFTRRNLLLGFGCFGQ,soluble
5,MDSHCRVRPAGPAVPADCDPPRITHAALAARLGDARLLTLYDQATWSEGPAWWEAQRTLVWSDLVGRRVLGWREDGTVDVLLDATAFTNGNAVDAQQRLVHCEHGRRAITRSDADGQAHLLVGRYAGKRLNSPNDLIVARDGAIWFTDPPFGLRKPSQGCPADPELAHHSVYRLPPDGSPLQRMADLDHPNGLAFSPDEQTLYVSQTPEQGHGSVEITAFAWRDGALHDRRHFASVPDGLPDGFCVDRGGWLWSSSGTGVCVFDSDGQLLGHIPTPGTASNCTFDQAQQRLFITGGPCLWMLPLP,soluble
6,MDSLKEAEIREVFREFDKNGDGRITRQELEVALLQLGEKASNSKIETMIEQADLDGNGCIDIDEFLNVLRRQICDPKEERELRDVFNVFDKNGDGVISIDDLIFVMCQLGEKLTETEAKEMIKQGDLDHDGMIDFQEFVNIIKGQ,soluble
7,MDSTMSEHADVLIVGGGPVGALAALRLARQGRSVLLLEARAKDAEVRDARALALSWHSRRLLEEAGAWPADLPATAIDTVHVSQQGGCGRTRLDSADLGLPHLGAVVDYPALVAGLGGALEAAGVQVIWQCRVTAVKSLSQYACAEVETPQGKQLLTGSLLVLAEGGALAETLPGIRRLTHDYRQCALLAEVETELPPQGVAYERFAHAGPFALLPHGERYMLVWTRSQADAERLAAADAAVLRDELQQAFGERQGRILSIGPRASFPLALRQANRVTSGRVALIGNAAQTMHPVAAQGLNLGLRDAVGLADALENAADAGDARALKRYADSRKLDSHAVVGFTHGLIKLFDGHHPLMSRLRGVGMTALDALPSLRRKFAGHLVFGVRGLEHHHHHH,soluble
8,MDTLKRGKYAKFLHNYLVDNSSQRGYVLNLNAQWGAGKTYFINRWIDSIKDAHPVVYIDAWKQDYSDDPMLTVVSSIIDALEEHLPAGNKKAIALKNKATRFFKAAAPLLMKGLIKKATGMNIDDVEPETEKKEGSDLYNLTGEASAALAKCLIDDHNEKLKTVEHLRSDIKSLIEALDPKKKLKLPAFIFIDELDRCRPSYAVEMLEVIKHFFELENIVFVVATDTEQLQHAVKAVYGEGFDAQTYLGRFFRRRYSLSESSRFEFVKQMVGESYEIKSLEHHHHHH,not soluble
9,MDVNQFTELITKLQSADNDIRKQAEEVYEKIEGPTKVAALFEAYTHHTNNSDARSTVLVFLRRVLARDWDAIWETLNEENKQRILAKVLEMIVHETELSIKKKIADLISEIASNLIDDSGDMTWGGVLELMDHCLKSEDLTGNYIALLILRGCPIIFGNRLAHFLPTLKVVLEKCMATPDLQIKATAVRAVIAFAVDNDEEKDVVRLMTSLVPNVLQVCNETSDEDDSDGPLGEFAELASSLPKCLNTHMSQVLQVTLAIAGNKEKNEMVRQNAIEVICSYMESAPKGLKKYAPGALGPILETLLSCMTEMDDDVLNEWLNEIEEEEDYEDIPIIAESAIDRVACCINGKVMLPVFLPLVEKLLTSEDWKMKHAALRAFSAVGEGCQRSMEPHIEQIMAHITNYVNDAHPRVQYAACNAIGQMSSDFAPTLQKKCHAAVIPALLESLDRTDVPRVCAHAASALVNFAEECPKSIIGQYLPFILQKLENVLSAVFNRLGDKRYQVVVENIVTAIASVAEAAEELFKEHHARLIPNLVHILQNVGELKELRGKTIECISLIGYAVGKEQFHATAIEILNLLGDGMKDLAIDDPQYSYMISSWTRFCSILGADFAPFLPVVMDPVLRAARYRPDFNIFNNEDVHENEEGVEYHGIGGEKTVGIRTSGLEEKATACDMLVAFAKEMKEAFMPYVVDVYELAIKNLDFGLHDGVRTASAEIMPCLLTCVEKQGLADKRRLWCEFLKALTTSMEEEDDVEILASFMTTIGSCIEVMKTEGIAEEEVQLIISVLLKQLENYGKRMSDRPVEDEDDDDAEAKEELDYFMELEASCLGAISDLTHSLMKEFKGTIFEGMINVFNCAIQLIEGSKQYFERQWGMCLLDDAIEFGVGHMPTRFPKLIPIMYKLLGDEYPEVRQAASYGFGVMAINYHQISDYRNEILSCLEPLAAMIQREDARATEESTVATENAISAFAKIIGNVPLPAEAYGKVVEMFLSWLPTYSDTEESPYIYTCLAELFDKQDAALFGPENQNLPRIFLVCLLSIANDAFNDDDSGNQTKQRIVTILKQIYASFPQFAQQDGIDEHLTSVLQQTLNGQ,not soluble
10,MDVRQVLHMKGGAGENSYAMNSFIQRQVISITKPITEAAITALYSGDTVTTRLAIADLGCSSGPNALFAVTELIKTVEELRKKMGRENSPEYQIFLNDLPGNDFNAIFRSLPIENDVDGVCFINGVPGSFYGRLFPRNTLHFIHSSYSLMWLSQVPIGIESNKGNIYMANTCPQSVLNAYYKQFQEDHALFLRCRAQEVVPGGRMVLTILGRRSEDRASTECCLIWQLLAMALNQMVSEGLIEEEKMDKFNIPQYTPSPTEVEAEILKEGSFLIDHIEASEIYWSSCTKDGDGGGSVEEEGYNVARCMRAVAEPLLLDHFGEAIIEDVFHRYKLLIIERMSKEKTKFINVIVSLIRKSD,soluble
11,MDVSAYPFFRRDMSWLSFNERVLMEAADRTLPVYDRIKFLSIFSSNLEEFYTVRVAYHQAVLQKRRDRSEAEEDSDADAHILQAIRETVIRQDELYYRIFYDQILPTLEEHGIRLRTHAPTHPDHKAYLRRFFHEEIFPLLYPMLLLPSKVRTFIRSGRVYLAVRLKEKETDEAYSYALLNVPTDGLPRFVELPRLQTDTFYYYSFLEDIIKEHLDVVFPGYEVMDSYSIKVSRDADLLLDAQRPEDLPGEIRKKVKTRKLGAPTRFMYDGRMPDEVLRYICSSCDIDPEEAIRSGNYVNLQDLAMLPNPFAPRLETLTPEPLLSKHLEQAPSLMEGIRRKDYLIHVPYYTYDYVVRLLMEAAISPDVSEIRLTQYRVAENSSIISALEAAAQSGKKVSVFVELKARFDEENNLRLSERMRRSGIRIVYSMPGLKVHAKTALILYHTPAGERPQGIALLSTGNFNETTARIYSDTTLMTANTDIVHDVYRLFRILDGDPEPARFSRLLVARYNMGEAITNLIEREIENVKRGKRGYMLLKMNGLQDKNVITQLYRASEAGVEIDLIVRGICCLVPDMPQSRNIRVTRLVDMYLEHSRIWCFHNGGKEEVFISSADWMKRNLYNRIETACPVLDPALRREIIDILEIQLRDNIKACRIDSSLNNIYKHNSDEKPVRAQAAIYRYLKGKEEATPAAK,not soluble
12,MDVSLESLVNSLQATRSTLLSEIEMLNDTEVNVKPRRDKWSIIQILHHLHLVEQSVTSALVYALQKNERNMTPFKDLQLTLDRTHKREAPQQMQPTETLMKKQQGIQLLEHSRQELLHALHSVIDEKDLFENGLKHPVFNDLNLYQWVQFLDLHEQRHLTQLKEAKHAILQR,not soluble
13,MDVTQLKMLRNAKVVSEIKKGFSIDKKYQVDETYLVRVFPKELLQTRKQEFEIIQALGSQTPFVPRAYDFGCTGGEGYMIIGYVRGEDAENGMFRLSHSEQFKAGFSAGEILREVHKIPLDIPKMNWLDFQTAKFKRKVEELKELEITASFLTETEQFVYENIARLKNRPVCLQHGDFHPANIILKNKKFAGLIDFNRLEFGDPLFDLAKIGFFTTEVSIPFARGNILGYIDKEEVTDFWNLYALYTAMHITSAVNWAAKNESRNFNKLMNYAAKTAASHDNFQKLMPDWMNKEEFK,not soluble
14,MDWEKVGLKMGLEIHQQLDTESKLFCPCRTELTDSEPDHDIVRNLRPTQSELGKFDRAAFEEAMRKLHFHYENYHEETCLVEADEEPPHPLNPEALEIAVTIALLLNMRVVDEFHTMRKQVIDGSNTGGFQRTGLVATDGHLETPQGTVKIENLCLEEDAARRIRETGDGVVFRLDRLGIPLVEITTDPSMSDPQQLREVAYQIGQILRSTRVKRGLGTIRQDLNISIRDGARVEVKGVQDLDLIPEIVEREVKRQLSLVEIRDTLQERGAVVEDKIFDVSEVFADTESRIISSAESVLAVKLRGFDGLIGVEIQPGRRLGTEMADYAKKRGVSGIFHTDELPAYGITEEEVRGLRDAVGASQGDAVVMVAHERVTAENALREVIRRAEMAIQGVPEETRKALPDGNTQYLRPLPTSSRMYLETDIPLFRIEDDLLEGIRRNLPELPSEKKERIMRDYGLSEDLASQLVKRNLVDEFEALTEFRVDTTVIASLLAYTLRELRREGHDVDGLGLDELRDAIKLLEVGKISKDALRDIVACMADEGLAAEDAARKLNLLLLAEDEIESIIQEIVEGNLDMISERGMGAMGPLMGQAMGRLRGRADGKVVNRILREKIQERL,soluble
15,MDYDVLILGGGIIGCSVAYELSKYNLNIALIEKDFDIADDVSFVNTAIVYDGSECKDNLMSYLENMGNMMLPEITKKLNVPFKRVGHLTIADNDETVRIIEENYKRAKSRGINNIYLIDEKRAREIEPNYKGEIKKAMYSENIAVTSPYDLAIGFAEIAYDNGVSFRLEEIVLDIQSIAKGFKVTTNKNKFTCRFVINTTPGEHYTIDQDKDYEQKNALKTYYLLLNDEIKEKTSNIVVKLKNEEEFIIQKNTVNGDTLIGINSNNSLGFMKSLKIAKEMINSISRKHVKDIFYDNHNQDRLIIDDSRKNKGYIKVMGNHYGEVTIAPAVSKIICDEIIDKLNCSLNKNFVDKRREFYRFRELSNEERNELISLDKRYGKIVCLCNGISEGEIVDCIRRPLGARTVEGVKRRTGATFGTCHGAYCISKIINILARELEKKPTEIVEDSKNSKVLASRIKEFDRVLEHHHHHH,not soluble
